# Target: sACE2_(2).S01-IgG1 (human) (UniProt Q9BYF1)
# Assay: BLI
substance,measurement,value
Delta-RBD (from UniProt P0DTC2) (domain or fragment),Kd,1 nM

# Source: paper PMC11342882
